Drawing on article PMC11306256, this text covers percent of protein in gradient fraction for one variant.

The labels stand for the following.
B1: GST-tagged recombinant Xenopus APE1, wild type [Xenopus laevis] / itself (parent)
chain: MPKRGKKEEVCAAEPQEDGNEPEVKKGKKGAGKAAKEPEPVVLYEDAPDNVTSADGKKYTLKISSWNVDGIRAWIKKQGLNWVREEDPHIMCLQEIKCAEKLLPPDVKDMPEYPHKYWACPDEKEGYSGVAMLCKDKPLNVTYGIGIEEHDKEGRVITAEFDSFFVIAAYIPNSSRGLVRLDYRQRWDVDFRAYLKGLDSKKPLILCGDLNVAHQEIDLKNPKTNKKTPGFTPQERQGFGELLAEGYLDSFRELYPDKPSAYTFWTYMMNARAKNVGWRLDYFVLSKALRPALCDCKIRSKVMGSDHCPITLLMAI

In one assay the parent is B1. The assay is described as follows: sucrose density gradient sedimentation, quantified immunoblot (self-association / oligomerization). To be noted: with itself; fraction #3 (low-mass peak, co-sediments with 75kD Conalbumin); n = 3; parent: 17; read off a plot.
As for MPKRGKKEEVCAAEPQEDGNEPEVAAGKKGAGAAAKEPEPVVLYEDAPDNVTSADGKKYTLKISSWNVDGIRAWIKKQGLNWVREEDPHIMCLQEIKCAEKLLPPDVKDMPEYPHKYWACPDEKEGYSGVAMLCKDKPLNVTYGIGIEEHDKEGRVITAEFDSFFVIAAYIPNSSRGLVRLDYRQRWDVDFRAYLKGLDSKKPLILCGDLNVAHQEIDLKNPKTNKKTPGFTPQERQGFGELLAEGYLDSFRELYPDKPSAYTFWTYMMNARAKNVGWRLDYFVLSKALRPALCDCKIRSKVMGSDHCPITLLMAI [chain 1 K25A K26A K33A], the percent of protein in gradient fraction came out at 23%.

The assay is the same for the next values; noted with them: with itself; fraction #7 (high-mass oligomer peak of WT); n = 3; parent: 16; read off a plot.
With MPKRGKKEEVCAAEPQEDGNEPEVAAGKKGAGAAAKEPEPVVLYEDAPDNVTSADGKKYTLKISSWNVDGIRAWIKKQGLNWVREEDPHIMCLQEIKCAEKLLPPDVKDMPEYPHKYWACPDEKEGYSGVAMLCKDKPLNVTYGIGIEEHDKEGRVITAEFDSFFVIAAYIPNSSRGLVRLDYRQRWDVDFRAYLKGLDSKKPLILCGDLNVAHQEIDLKNPKTNKKTPGFTPQERQGFGELLAEGYLDSFRELYPDKPSAYTFWTYMMNARAKNVGWRLDYFVLSKALRPALCDCKIRSKVMGSDHCPITLLMAI [chain 1 K25A K26A K33A], the percent of protein in gradient fraction amounted to 6%.
